Like-named read-outs stand apart in the source and are kept apart here.

Experiment [1] has as its target T1, recombinant human ROR2-extracellular domain (ROR2-ECD) (human, UniProt Q01974 34-403).
T1 construct: also called recombinant ROR2-extracellular protein; recombinant ROR2 protein
Description: ELISA.

The target of experiment [2] is T2, human ROR2 expressed on cells (human, UniProt Q01974 34-943).
T2 construct: Full-length human ROR2 entry; endogenous on cell lines and PDX cells, transfected in MCF7-ROR2; also called ROR2 surface antigen; human ROR2 on K562, BR1936 PDX, MCF7-ROR2 and other ROR2-expressing cell lines
T2 sequence (Q01974 34-943 limits assumed): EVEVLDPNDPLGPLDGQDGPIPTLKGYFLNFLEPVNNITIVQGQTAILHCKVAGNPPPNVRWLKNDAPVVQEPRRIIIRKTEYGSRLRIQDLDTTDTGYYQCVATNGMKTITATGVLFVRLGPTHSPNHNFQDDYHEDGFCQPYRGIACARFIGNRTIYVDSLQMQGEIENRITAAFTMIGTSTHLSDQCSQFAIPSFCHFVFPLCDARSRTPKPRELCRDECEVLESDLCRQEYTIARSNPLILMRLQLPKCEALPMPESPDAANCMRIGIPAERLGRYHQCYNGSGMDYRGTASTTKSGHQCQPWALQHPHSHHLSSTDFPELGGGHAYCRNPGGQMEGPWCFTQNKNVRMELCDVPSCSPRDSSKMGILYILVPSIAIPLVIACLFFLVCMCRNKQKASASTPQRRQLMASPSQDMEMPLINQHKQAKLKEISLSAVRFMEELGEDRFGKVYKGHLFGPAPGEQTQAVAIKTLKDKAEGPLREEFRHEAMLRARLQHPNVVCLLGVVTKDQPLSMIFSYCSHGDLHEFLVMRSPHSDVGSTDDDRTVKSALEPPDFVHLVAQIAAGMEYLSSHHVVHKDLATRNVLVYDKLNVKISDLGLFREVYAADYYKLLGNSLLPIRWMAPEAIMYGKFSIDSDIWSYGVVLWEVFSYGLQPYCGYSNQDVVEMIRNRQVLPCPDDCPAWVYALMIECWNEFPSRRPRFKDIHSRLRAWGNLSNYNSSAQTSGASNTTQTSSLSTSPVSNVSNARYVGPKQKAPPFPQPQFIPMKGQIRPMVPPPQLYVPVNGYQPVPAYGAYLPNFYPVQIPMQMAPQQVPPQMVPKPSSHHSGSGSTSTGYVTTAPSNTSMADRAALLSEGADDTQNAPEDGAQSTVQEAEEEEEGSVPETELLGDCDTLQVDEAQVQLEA
In words: flow cytometry on ROR2-expressing cells. On the technique in general: In flow cytometry, cells or beads pass a laser one at a time.

In experiment [3] the target is T1, recombinant human ROR2-extracellular …. In words: kinetic exclusion assay (KinExA), soluble recombinant ROR2. As to the method: (§1) FIGS. 4A and 4B. Affinity measurement of binding of the 6E6 and 4G9 mAb to recombinant ROR2 protein. (FIG. 4A) Analysis was performed using a KinExA 3200 instrument. The proportion of anti-human ROR2 mAb bound to particles coated with ROR2 protein (y-axis) in the presence of increasing molar (M) concentration of soluble ROR2 competitor (x-axis) is shown for 6E6 (upper panel) and 4G9 (lower panel). (FIG. 4B) Illustration of the 95% confidence interval for the measured Kd of 6E6 (upper panel) and 4G9 (lower panel) for binding to human ROR2.
(§2) Applicants assessed binding specificity and relative affinities of each mAb using recombinant ROR2-extracellular protein in an ELISA assay, in which binding was measured using decreasing/limiting amounts of ROR2 protein and assessed in combination with decreasing concentrations of each of the four mAb (FIG. 3). Higher absorbance values for 6E6 and 4G9 at both lower ROR2 protein amounts and lower concentrations of mAb, indicate these mAb have higher affinities compared to 5C11 and 5G3. Equilibrium dissociation constants (Kd) were measured in a kinetic exclusion assay (KinExA) that measures the equilibrium binding affinity and kinetics between unmodified molecules in solution.
On the technique in general: Kinetic exclusion samples the free partner from a solution-phase mixture.

For experiment [4] the target is unchanged. Described as above. How it is done:
as §1, §2
The source holds these as a separate data set.

Another experiment addresses T3, hCRD (mouse;human, UniProt Q9Z138;Q01974).
T3 construct: N-terminal part of the extracellular portion;cysteine rich domain (CRD);C-terminal part of the extracellular portion; also called chimeric human/mouse recombinant ROR2 extracellular construct that contains the cysteine rich domain of human ROR2
Description: dot blot; recombinant protein on nylon membrane, probed with the mAb, HRP anti-mouse IgG. An excerpt: (§3) FIG. 5. Identification of the binding regions of anti-human ROR2 mAb by assessment of binding to chimeric […] recombinant ROR2 protein. […] Each recombinant protein was transferred onto nylon membrane, probed with the 6E6, 4G9, 5C11, 5G3 or anti-his tag mAb, and detected with an anti-mouse IgG antibody conjugated with horse radish peroxidase, as shown in the right panel. The […] and 5C11 mAbs bind to ROR2 recombinant proteins that contain the human kringle domain.
(§4) Applicants developed a series recombinant human/mouse hybrid proteins that isolate specific domains of the human ROR2 protein. These recombinant proteins were used to identify the specific binding domains that each of the four mAb target (FIG. 5). The 6E6 and 5C11 mAb bind to the Kringle domain of human, but not mouse, ROR2. […] None of the four mAb bind mouse ROR2.

Experiment [5] has as its target T4, hKringle (mouse;human, UniProt Q9Z138;Q01974).
T4 construct: N-terminal part of the extracellular portion;C-terminal part of the extracellular portion with the Kringle domain; also called chimeric human/mouse recombinant ROR2 extracellular construct that contains the Kringle domain of human ROR2
Described as above.

In experiment [6] the target is T5, mouse ROR2 (recombinant extracellular portion) (mouse, UniProt Q9Z138 34-403). The experiment is described as above.
T5 sequence (Q9Z138 other isoform, or with tags, fused parts or gaps limits assumed): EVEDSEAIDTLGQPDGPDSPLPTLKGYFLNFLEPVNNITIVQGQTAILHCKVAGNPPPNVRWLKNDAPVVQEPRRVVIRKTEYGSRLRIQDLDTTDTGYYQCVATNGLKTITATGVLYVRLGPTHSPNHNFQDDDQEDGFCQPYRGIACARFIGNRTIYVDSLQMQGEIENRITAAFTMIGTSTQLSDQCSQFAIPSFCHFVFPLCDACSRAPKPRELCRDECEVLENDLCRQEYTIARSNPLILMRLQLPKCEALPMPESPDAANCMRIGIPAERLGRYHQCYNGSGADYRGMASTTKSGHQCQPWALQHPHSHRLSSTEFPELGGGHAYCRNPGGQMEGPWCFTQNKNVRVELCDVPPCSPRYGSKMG
Experiment [7] addresses T1, recombinant human ROR2-extracellular …. Description: KinExA 3200 kinetic exclusion assay; free mAb captured on particles coated with ROR2 protein, soluble ROR2 as titrant. As to the method: as §1, §2
For experiment [8], the target named is T4, hKringle. Description: dot blot; recombinant protein on nylon membrane, probed with the mAb, HRP anti-mouse IgG.
Source text: as §3, §4
This is another data set of the same source.

The target of experiment [9] is T5, mouse ROR2 (recombinant extracellular …). The experiment is described as above.
Source text: as §3, §4
This is another data set of the same source.

Another experiment has as its target T6, h1-111 aa (human;mouse, UniProt Q01974;Q9Z138).
T6 construct: N-terminal part of the extracellular portion;C-terminal part of the extracellular portion; A tag is not described, but the blot was also probed with an anti-his tag mAb
The description is as above.
Source text: as §3, §4

In a further experiment the target is T7, h1-160 aa (human;mouse, UniProt Q01974;Q9Z138).
T7 construct: N-terminal part of the extracellular portion;C-terminal part of the extracellular portion; also called chimeric human/mouse recombinant ROR2 extracellular construct with the first 160 amino acids of human ROR2
T7 sequence (Q01974 other isoform, or with tags, fused parts or gaps limits assumed): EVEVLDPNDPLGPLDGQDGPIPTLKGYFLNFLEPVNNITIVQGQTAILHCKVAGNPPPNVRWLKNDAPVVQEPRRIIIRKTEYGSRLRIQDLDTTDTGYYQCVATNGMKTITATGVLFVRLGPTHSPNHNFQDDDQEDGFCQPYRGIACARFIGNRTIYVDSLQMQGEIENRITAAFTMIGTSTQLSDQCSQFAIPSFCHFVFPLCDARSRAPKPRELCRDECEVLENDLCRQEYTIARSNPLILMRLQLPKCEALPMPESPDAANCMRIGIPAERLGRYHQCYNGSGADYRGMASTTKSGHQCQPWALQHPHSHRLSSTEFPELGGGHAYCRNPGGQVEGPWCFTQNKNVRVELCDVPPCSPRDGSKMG
The experiment is described as above.
Source text: as §3, §4

For experiment [10], the target named is T8, recombinant human ROR2 with methionine 386 replaced by the valine of mouse ROR2 (human, UniProt Q01974 34-403).
T8 construct: also called human ROR2 M386V
T8 sequence (Q01974 other isoform, or with tags, fused parts or gaps limits assumed): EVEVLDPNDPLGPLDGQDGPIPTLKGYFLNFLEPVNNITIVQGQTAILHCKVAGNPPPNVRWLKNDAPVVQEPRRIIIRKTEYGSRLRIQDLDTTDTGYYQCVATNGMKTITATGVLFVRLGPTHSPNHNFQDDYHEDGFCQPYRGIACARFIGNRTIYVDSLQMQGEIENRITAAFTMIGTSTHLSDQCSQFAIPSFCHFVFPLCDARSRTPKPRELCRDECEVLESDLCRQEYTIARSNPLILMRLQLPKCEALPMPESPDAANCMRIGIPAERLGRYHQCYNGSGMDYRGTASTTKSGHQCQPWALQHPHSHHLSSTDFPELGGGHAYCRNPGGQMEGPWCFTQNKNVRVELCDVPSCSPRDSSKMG
The experiment is described as above.

The target in experiment [11] is T9, recombinant human ROR2 with histidine 349 replaced by the arginine of mouse ROR2 (human, UniProt Q01974 34-403).
T9 construct: also called human ROR2 H349R
T9 sequence (Q01974 34-403 H349R limits assumed): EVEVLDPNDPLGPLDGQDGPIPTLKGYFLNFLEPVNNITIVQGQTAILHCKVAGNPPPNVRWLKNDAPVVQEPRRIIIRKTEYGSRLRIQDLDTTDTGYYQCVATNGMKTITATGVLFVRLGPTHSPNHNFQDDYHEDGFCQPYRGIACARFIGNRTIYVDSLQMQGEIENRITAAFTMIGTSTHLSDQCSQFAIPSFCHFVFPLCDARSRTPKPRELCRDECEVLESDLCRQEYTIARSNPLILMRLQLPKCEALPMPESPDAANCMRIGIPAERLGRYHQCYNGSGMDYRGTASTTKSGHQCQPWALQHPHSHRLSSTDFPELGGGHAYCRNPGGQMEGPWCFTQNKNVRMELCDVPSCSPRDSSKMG
Described as above.

The target of experiment [12] is T10, recombinant human ROR2 with aspartic acid 354 replaced by the glutamic acid of mouse ROR2 (human, UniProt Q01974 34-403).
T10 construct: also called human ROR2 D354E
T10 sequence (Q01974 34-403 D354E limits assumed): as the sequence (Q01974 34-403 H349R limits assumed) above, with R316H, D321E counted along it
Described as above.

The target of experiment [13] is T1, recombinant human ROR2-extracellular …. In words: KinExA 3200 kinetic exclusion assay; free scFv captured on particles coated with recombinant ROR2 protein, soluble ROR2 as titrant. As to the method:
FIGS. 12A and 12B. Affinity measurement and binding specificity of the 6E6 single chain variable fragment (scFv) for human ROR2. Analysis was performed using a KinExA 3200 instrument. (FIG. 12A) The proportion of the 6E6 anti-human ROR2 scFv bound to particles coated with recombinant ROR2 protein (y-axis) in the presence of increasing molar (M) concentration of soluble ROR2 competitor (x-axis) is shown. (FIG. 12B) Illustration of the 95% confidence interval for the measured Kd of 6E6 scFv for binding to recombinant human ROR2. (FIG. 12C) Binding of the 6E6 scFv to ROR2 was assessed by flow cytometric staining and analysis of K562 (ROR2 positive) and JEKO (ROR2 negative) cells. Cells were stained on ice for 20 minutes with ~1 ug/ml of 6E6 anti-human ROR2 scfv, washed, stained for an additional 20 minutes on ice with phycoerythrin (PE)-conjugated anti-human IgG1 antibody, washed and analyzed by flow cytometry. Shaded histograms depict the relative fluorescence intensity (x axis) of viable cells, as determined by light scatter characteristics, stained with 6E6 scfv compared to viable cells stained with the anti-human IgG1-PE antibody only (open histograms).

T1 sequence (Q01974 34-403 limits assumed): as the sequence (Q01974 34-403 H349R limits assumed) above, with R316H counted along it
T3 sequence (Q9Z138 other isoform, or with tags, fused parts or gaps limits assumed): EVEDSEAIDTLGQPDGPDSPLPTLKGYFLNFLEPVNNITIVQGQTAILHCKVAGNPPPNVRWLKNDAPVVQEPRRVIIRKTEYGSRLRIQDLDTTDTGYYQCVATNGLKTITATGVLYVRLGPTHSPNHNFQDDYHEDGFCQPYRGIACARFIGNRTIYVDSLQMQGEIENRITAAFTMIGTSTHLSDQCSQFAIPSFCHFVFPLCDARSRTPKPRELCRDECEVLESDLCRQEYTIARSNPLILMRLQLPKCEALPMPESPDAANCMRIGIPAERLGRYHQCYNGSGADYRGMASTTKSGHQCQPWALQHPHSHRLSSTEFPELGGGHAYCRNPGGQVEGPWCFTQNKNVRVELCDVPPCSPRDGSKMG
T4 sequence (Q9Z138 other isoform, or with tags, fused parts or gaps limits assumed): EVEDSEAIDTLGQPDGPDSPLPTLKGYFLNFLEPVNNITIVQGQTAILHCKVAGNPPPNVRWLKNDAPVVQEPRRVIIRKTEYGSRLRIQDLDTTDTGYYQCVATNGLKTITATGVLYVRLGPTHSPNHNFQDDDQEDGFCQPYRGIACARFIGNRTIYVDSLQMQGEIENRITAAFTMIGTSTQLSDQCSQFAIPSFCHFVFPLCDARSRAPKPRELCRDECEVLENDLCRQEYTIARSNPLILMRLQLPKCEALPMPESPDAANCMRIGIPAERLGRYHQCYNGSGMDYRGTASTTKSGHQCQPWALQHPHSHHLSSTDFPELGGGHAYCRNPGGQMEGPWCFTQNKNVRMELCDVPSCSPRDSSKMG
T6 sequence (Q01974 other isoform, or with tags, fused parts or gaps limits assumed): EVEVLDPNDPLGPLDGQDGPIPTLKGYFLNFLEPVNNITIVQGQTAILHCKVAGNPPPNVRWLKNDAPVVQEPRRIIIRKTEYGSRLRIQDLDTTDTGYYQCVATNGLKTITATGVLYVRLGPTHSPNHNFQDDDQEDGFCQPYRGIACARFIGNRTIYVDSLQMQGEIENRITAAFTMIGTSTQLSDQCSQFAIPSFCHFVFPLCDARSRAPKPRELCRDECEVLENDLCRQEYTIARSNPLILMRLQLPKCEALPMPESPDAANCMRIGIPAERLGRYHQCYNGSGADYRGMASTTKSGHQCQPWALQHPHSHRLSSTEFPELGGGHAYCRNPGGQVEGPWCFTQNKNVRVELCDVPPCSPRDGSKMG

B1: 4G9 single chain variable fragment (scFv) (scFv)
scFv: DIVMTQAAPSVPVTPGESVSISCRSSKSLLHSNGNTYLYWFLQRPGQSPQLLIYRMSNLASGVPDRFSGSGSGTAFTLRISRVEAEDVGVYYCMQHLEYPLTVGAGTKLELKGSTSGSGKPGSGEGSTKGQVQLQQSGAELVRPGASVKLSCKALGYTFTDYEMHWVKQTPVHGLEWIGAIHPGSGGTAYNQKFKGKATLTADKSSSTAYMELSRLTSEDSAVYYCTRRRPRFYGMDYWGQGTSVTVSSEFLFPPKPKDTLMISRTPEVTCVVVDVSHEDPEVKFNWYVDGVEVHNAKTKPREEQYNSTYRVVSVLTVLHQDWLNGKEYKCKVSNKALPAPIEKTISKAKGQPREPQVYTLPPSREEMTKNQVSLTCLVKGFYPSDIAVEWESNGQPENNYKTTPPVLDSDGSFFLYSKLTVDESRWQQGNVFSCSVMHEALHNHYTQKSLSLSPGK
notes: scFv fused to CH2-CH3 of human IgG1; the leader is left out here; also called 4G9 scFv
Consider B1, for which the binding result in [1] and in experiment [2] was “binds” in each case.

B2: 4G9 anti-human ROR2 monoclonal antibody (antibody, IgG2a, V domains shown)
VH: QVQLQQSGAELVRPGASVKLSCKALGYTFTDYEMHWVKQTPVHGLEWIGAIHPGSGGTAYNQKFKGKATLTADKSSSTAYMELSRLTSEDSAVYYCTRRRPRFYGMDYWGQGTSVTVSS
VL: DIVMTQAAPSVPVTPGESVSISCRSSKSLLHSNGNTYLYWFLQRPGQSPQLLIYRMSNLASGVPDRFSGSGSGTAFTLRISRVEAEDVGVYYCMQHLEYPLTVGAGTKLELK
notes: Used conjugated with Alexa647 in flow cytometry and with pHrodo in the internalisation assay; also called 4G9 mAb
Usually Kd stands for the equilibrium constant for the complex coming apart. With B2, the Kd in experiment [3] was about 2 nM; in experiment [4] it was about 1.9 nM; in [7], 1.9 nM. In addition, the binding result (with hCRD; in the experiment with hKringle [5]; in [6]) was “no binding” each time.

B3: 5G3 anti-human ROR2 monoclonal antibody (antibody, IgG2a, V domains shown)
VH: EVQLVESGGGLVQPKGSLKLSCAASGFTFNTYAMNWVRQAPGKGLEWVARIRSKSNNYATYYADSVKDRFTISRDDSQSMLHLQMNNLKTEDTAMYYCVRHGSSLYYAMDYWGQGTSVTVSS
VL: DIQMTQSPSSLSASLGERVSLTCRASQEISGYLGWLQQKPDGTIKRLIYAASTLDSGVPKRFSGSRSGSAYSLTISSLESEDFADYYCLQYASYPYTFGGGTKLEIK
notes: also called 5G3 mAb
As to B3, in experiment [4], the Kd was over 40 nM. In addition, the binding result (with hCRD; with hKringle [8]; in experiment [9]) was “no binding” throughout.

B4: 5C11 anti-human ROR2 monoclonal antibody (antibody, IgG1, V domains shown)
VH: EVQLVESGGDLVKPGGSLKLSCAASGFTFSNYGMSWVRQTPDKRLEWVATISSGGGSTYYPDSVKGRFTISRDNAKNSLYLQMSSLKSEDTAMYYCARHPYDYGYYFDYWGQGTTLTVSS
VL: DILLTQSPDILSVSPGERVSFSCRASQSIGTSIHWYQQRTNGSPRLLIKYASESISGIPSRFSGSGSGTDFTLSINSVESEDIADYYCQQSDSWPFPFGSGTKLEKK
notes: also called 5C11 mAb
Consider B4, for which the Kd in experiment [4] was over 40 nM. For the same molecule, the binding result (with h1-111 aa; with h1-160 aa; with hCRD; in experiment [10]; in [6]; in experiment [11]) was “no binding” throughout. Besides, the binding result in experiment [12] is listed as “no binding”.

B5: 6E6 single chain variable fragment (scFv) (scFv)
scFv: DIVMTQSHKFMSTSIGDRVSITCKASQDVGHYVAWYQQKPGQSPKLLIYWASTRHTGVPDRFTGSGSGTDFTLTISNVQSEDLADYFCQQYNIYPWTFGGGSKLAIKGSTSGSGKPGSGEGSTKGEVQLVESGGDLVKPGGSLKLSCAASGFTFSNYGMSWVRQTPDKRLEWVATISSGGGYTHYVDSVKGRFTISRDNANHILYLQMSSLNSEDTAMYYCARHPRDFSYAMDYWGQGTSVTVSSEFLFPPKPKDTLMISRTPEVTCVVVDVSHEDPEVKFNWYVDGVEVHNAKTKPREEQYNSTYRVVSVLTVLHQDWLNGKEYKCKVSNKALPAPIEKTISKAKGQPREPQVYTLPPSREEMTKNQVSLTCLVKGFYPSDIAVEWESNGQPENNYKTTPPVLDSDGSFFLYSKLTVDESRWQQGNVFSCSVMHEALHNHYTQKSLSLSPGK
notes: scFv fused to CH2-CH3 of human IgG1; the leader is left out here; also called 6E6 scFv; 6E6 anti-human ROR2 scFv
B5: the Kd in [13] worked out at 0.0737 nM.

B6: 6E6 anti-human ROR2 monoclonal antibody (antibody, IgG1, V domains shown)
VH: EVQLVESGGDLVKPGGSLKLSCAASGFTFSNYGMSWVRQTPDKRLEWVATISSGGGYTHYVDSVKGRFTISRDNANHILYLQMSSLNSEDTAMYYCARHPRDFSYAMDYWGQGTSVTVSS
VL: DIVMTQSHKFMSTSIGDRVSITCKASQDVGHYVAWYQQKPGQSPKLLIYWASTRHTGVPDRFTGSGSGTDFTLTISNVQSEDLADYFCQQYNIYPWTFGGGSKLAIK
notes: Used conjugated with Alexa647 in flow cytometry and with pHrodo in the internalisation assay; also called 6E6 mAb
In the case of B6, the Kd in experiment [3] was about 0.1 nM; in experiment [4], under 0.1 nM; in experiment [7], 0.0556 nM. For the same molecule, the binding result (in the experiment with h1-111 aa; in the experiment with h1-160 aa; with hCRD; in experiment [9]; in [11]; in [12]) was “no binding” in each case.

For the origin of these results see patent publication US20230192846A1 (University of California, published 2023).
